Measurements reported in patent US20240124585A1 (SUTRO BIOPHARMA, published 2024).

Tests used:
EpCAM on NCI-H1975 cells [1] = molecular target: T1, EpCAM on NCI-H1975 cells (UniProt P16422 24-314, limits assumed); test: cell-based or functional assay
T1 sequence (looked up): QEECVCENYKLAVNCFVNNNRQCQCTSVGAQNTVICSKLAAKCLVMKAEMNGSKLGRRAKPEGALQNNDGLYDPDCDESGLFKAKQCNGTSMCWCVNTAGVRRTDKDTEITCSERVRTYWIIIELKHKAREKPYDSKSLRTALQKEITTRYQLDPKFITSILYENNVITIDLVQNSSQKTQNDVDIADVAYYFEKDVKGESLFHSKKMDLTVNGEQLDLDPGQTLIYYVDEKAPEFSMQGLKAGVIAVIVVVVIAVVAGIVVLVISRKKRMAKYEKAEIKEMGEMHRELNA

EpCAM on NCI-H1975 cells [2] = molecular target: T1, EpCAM on NCI-H1975 cells; test: cell-based or functional assay; remark: listed apart in the source

B1: aEpCAM × hOKT3 (MT110/AMG110) (bispecific antibody)
chain: MELVMTQSPSSLTVTAGEKVTMSCKSSQSLLNSGNQKNYLTWYQQKPGQPPKLLIYWASTRESGVPDRFTGSGSGTDFTLTISSVQAEDLAVYYCQNDYSYPLTFGAGTKLEIKGGGGSGGGGSGGGGSEVQLLEQSGAELVRPGTSVKISCKASGYAFTNYWLGWVKQRPGHGLEWIGDIFPGSGNIHYNEKFKGKATLTADKSSSTAYMQLSSLTFEDSAVYFCARLRNWDEPMDYWGQGTTVTVSSGGGGSDVQLVQSGAEVKKPGASVKVSCKASGYTFTRYTMHWVRQAPGQGLEWIGYINPSRGYTNYADSVKGRFTITTDKSTSTAYMELSSLRSEDTATYYCARYYDDHYCLDYWGQGTTVTVSSGEGTSTGSGGSGGSGGADDIVLTQSPATLSLSPGERATLSCRASQSVSYMNWYQQKPGKAPKRWIYDTSKVASGVPARFSGSGSGTDYSLTINSLEAEDAATYYCQQWSSNPLTFGGGTKVEIK
For B1, which “T-cell mediated H1975 killing, EC50 (pM) Donor 1” value (EpCAM on NCI-H1975 cells [1]) is on record?
The value was 8 pM.

What about the “T-cell mediated H1975 killing, EC50 (pM) Donor 2” value (EpCAM on NCI-H1975 cells [1]) of the same binder?
Its value is 4 pM.

What about the “Cell killing Donor #1 EC50 (pM)” value (EpCAM on NCI-H1975 cells [2]) of the same binder?
The value was 8.2 pM.

And the “Cell killing Donor #2 EC50 (pM)” value (EpCAM on NCI-H1975 cells [2])?
The value was 4.1 pM.
